How the values were obtained:
[1] = target: VAR2CSA ectodomain (residue 1-2630) of Plasmodium falciparum 3D7 (Plasmodium falciparum 3D7); test: cross-linking
[2] = target: VAR2CSA ectodomain (residue 1-2630) of Plasmodium falciparum 3D7 (Plasmodium falciparum 3D7); test: SEC

VAR2CSA ectodomain (residue 1-2630) of Plasmodium falciparum 3D7 (domain or fragment)
stoichiometry N [1]: 2 | stoichiometry N [2]: 2
